This note sets out measurements from paper PMC4241754.

In the assay the target is WlbA from Thermus thermophilus (Thermus thermophilus). The experiment in a line: crystal structure.

In general, stoichiometry N refers to a count of units in the complex or per binding partner.

For the substance WlbA from Thermus thermophilus (enzyme), the stoichiometry N stood at 4.
